Laboratory results published in patent US20230322857A1, “RECOMBINANTLY ENGINEERED POLYPEPTIDES CAPABLE OF RECYCLING NONCANONICAL COFACTORS” (The Regents of the University of California, priority 2022, published 2023).

Experiments:
[1] = Steady-state kinetics of TS-PTDH variants with NAD^+; type: biochemical; details: 100 mM MOPS, pH 7.25, 10 mM sodium phosphite, varied cofactor concentrations; n = 3
Experimental: (§1) Purification and Characterization of TS-PTDH Variants. The E. coli BL21(DE3) strains harboring pQElac plasmids encoding the TS-PTDH or TS-PTDH variants were grown in 2×YT media with kanamycin and ampicillin at 37° C. The IPTG-inducible expression, Ni-affinity purification, and protein concentration determination was conducted as described above.
(§2) The steady-state kinetic parameters toward the coenzymes were measured by spiking purified protein into a 100 μL reaction mixture containing 100 mM MOPS, pH 7.25, 10 mM sodium Pt, and varied cofactor concentrations from 0.02 mM to 5 mM at 25° C. The kinetic parameters were measured by monitoring the […] of reduced coenzyme at 340 nm. Data were fitted to the Michaelis-Menten equation to generate estimates of KM and kcat values.

[2] = Steady-state kinetics of TS-PTDH variants with NADP^+; type: biochemical; details: 100 mM MOPS, pH 7.25, 10 mM sodium phosphite, varied cofactor concentrations; n = 3
Experimental: as §1, §2

[3] = Steady-state kinetics of TS-PTDH variants with NMN^+; type: biochemical; details: enzyme could not be saturated; 100 mM MOPS, pH 7.25, 10 mM sodium phosphite
Experimental: as §1, §2

[4] = Specific activity of TS-PTDH variants with NMN^+; type: biochemical; details: 100 mM MOPS pH 7.25, 10 mM sodium Pt, 4 mM cofactor, 25° C.
Experimental: as §1
The specific activities of TS-PTDH and variants were measured with the following methods. Briefly, the reaction mixture contained 100 mM MOPS buffer, pH 7.25, 10 mM sodium Pt, and 4 mM cofactor (NAD^+, NADP^+, or NMN^+). The formation of reduced coenzyme was measured by light absorption at 340 nm in a 96-well plate at 25° C. Absorption was correlated to a molar basis using the extinction coefficient (ε) of 6.22 mM^−1 cm^−1 for each cofactor.

[5] = BNA(H)-mediated PTDH biotransformation with TsOYE; type: biochemical; details: 0, 5, 10, or 20 mM BNA^+
Experimental: BNA(H)-Mediated PTDH Biotransformation. Reactions with BNA^+, see FIG. 10D, contained 100 mM MOPS-NaOH at pH 7.6, 10 mM KIP, 100 mM sodium phosphite, and 2% v/v DMSO. BNA^+Cl^−, prepared by refluxing equimolar amounts of nicotinamide and benzyl chloride in acetonitrile overnight, followed by precipitation with diethyl ether on ice was supplied to the reactions at final concentrations of 0, 5, 10, or 20 mM. Reactions were initiated by spiking TsOYE and the appropriate TS-PTDH variant to a final concentration of 10 μM, each. Reaction mixtures were incubated at 30° C. on a Thermomixer C (Eppendorf) with shaking at 900 rpm for 24 h, extracted with 500 μL ethyl acetate containing 5 mM n-dodecane, and analyzed by GC-FID. The cycling system with no BNA was used to determine the background activity of the cycling systems. This value was subtracted from the final levodione concentrations in the 5-, 10-, and 20-mM samples to determine the BNA(H)^− specific levodione production. Concentrations of levodione product were determined using a calibration line (0-10 mM, 6 levels, using n-dodecane as internal standard). The y-intercept of the calibration line was forced through 0.
For BNA(H)-mediated reactions, gas chromatography analyses were performed on a GC-2010 (Shimadzu, Japan) equipped with an AOC-20i auto injector and a flame ionization detector (FID), using a CP-Sil 5 column (25 m×0.25 mm×[…]). 1 μL of sample was injected with a split ratio of 100:1 and injector at 340° C. The FID was maintained at 360° C. Nitrogen was used as the carrier gas, with a linear velocity of 30 cm/s. The oven was held at 135° C. for 1 min, ramped at 15° C./min to 215° C., then 30° C./min to 345° C., and held at 345° C. for 1 min.
Expression and Purification of Proteins for BNA(H)-Mediated Biotransformation Reactions. E. coli BL21(DE3) strains were transformed with the plasmids containing the TS-PTDH variants and grown on LB-agar plates containing ampicillin at 37° C. overnight. An overnight culture, 15 mL LB supplemented with ampicillin, was inoculated with a single colony, and grown at 37° C., 170 rpm overnight. 2 L baffled shake-flasks with 250 mL of 2×YT media containing 200 μg/mL ampicillin, were inoculated with the overnight culture, grown at 37° C., 170 rpm until OD600 of ˜1.0, induced with IPTG (0.5 mM), and grown at 30° C. and 170 rpm for 24 h. Cells were harvested by centrifugation at 18,000×g, 4° C., 10 min and stored at −20° C. until purification.
The pellet was resuspended in four volumes loading buffer (50 mM sodium phosphate, 300 mM sodium chloride, 10 mM imidazole, pH 7.7), and lysed on ice by sonication (Branson sonifier 250; 15 min total, 40% duty cycle, output control 3.5, 2 mm tip). The lysate was clarified (21,000×g, 4° C., 30 min followed by 0.2 μm filtration), and loaded (1 mL/min) onto a Nickel-HisTrap FF crude (1 mL) column, washed with loading buffer (12 column volumes, CV), followed by a step with 10% elution buffer (loading buffer containing 250 mM imidazole; 12 CV). The protein was then eluted with 100% elution buffer and collected in fractions of 0.5 mL. Fractions containing protein were combined and dialyzed against ice-cold dialysis buffer (50 mM sodium phosphate, pH 7.7, 800 mL); the buffer was renewed after the first 2 h of dialysis. Following the dialysis, the protein was mixed with glycerol (20% v/v final concentration). Enzyme concentrations were estimated by the absorbance at 280 nm (non-denatured protein), using predicted extinction coefficients (wild type and LY-13: 26470, LY-7: […]; web.expasy.org/protparam/). The protein was aliquoted, flash frozen in liquid nitrogen, and stored at −80° C. until use. […]

E. coli SHuffle strain = assay: Recapitulation of growth restoration with TS-PTDH variants in SHuffle strain; type: cell-based, Escherichia coli; details: spotted onto agar selection plates
Experimental: Selection of TS-PTDH Library. A total of 50 μL pre-made SHuffle/pLZ311 or SHuffle/pLZ312 electro-competent cells were transformed with 2 μL TS-PTDH A155N-E175-A176-L208 NNK library DNA (pLZ316) via electroporation as described above. After rescue in SOC media for 1 h, cultures were combined in 10 mL 2×YT with 10 g/L glucose, 0.5% arabinose, kanamycin and ampicillin. 0.2, or 1 μL of culture was immediately taken from the culture and plated on an 2×YT agar plates with kanamycin and ampicillin. The plate was incubated at 37° C. overnight, and the number of colonies formed was counted to estimate the library size. The liquid cultures were incubated at 37° C. with shaking for 10 h. Cells (1 mL) were washed 3 times and re-suspended in M9 Buffer. Targeted serial dilutions of cells were prepared in M9 buffer and 5 μL aliquots were dispensed in series on an agar plate of M9 selection media containing 0.5 mM diamide, 5 or 1 g/L yeast extract, 10 g/L glucose, 0.5% arabinose, 0.5 mM IPTG, 10 g/L sodium phosphite, kanamycin, ampicillin, and 5 mM NMN^+. Selection plates were incubated at 37° C., and photographs were taken to document growth progress. The independent transformants sampled was calculated as 2.4×10^6 and 2.5×10^6 colonies when plated on 5 and 1 g/L yeast extract, respectively. TS-PTDH and the template of the library, TS-PTDH A155N, were cultured in the same conditions as controls. The colonies were numbered by the order of appearance. The selected cells were re-streaked on fresh agar plate with identical media and incubated until single colonies formed on the plate. Variants that cannot forma single colony may be false positives. After extracting the plasmids from each re-streaked colony, the chosen TS-PTDH variants were amplified and moved into the pQElac vector containing a N-terminal 6×His tag for protein purification and characterization. […] 2 μL of a serial dilution of cells were deposited onto a growth selection plate and grown at 37° C.

[6] = reported values; cited from earlier work

| Molecule | Km [1] [µM] | NAD^+ kcat [1] [s⁻¹] | Km [2] [µM] | NADP^+ kcat [2] [s⁻¹] | Km [3] [µM] | NMN^+-dependent specific activity [4] [nmol/min/mg] | response of biotransformation efficiency to BNA^+ concentration [5] | growth restoration, co-expression with NMNH-specific Gor Ortho (E. coli SHuffle strain) | growth, co-expression with wild type Ec Gor (E. coli SHuffle strain) | TTN with NAD^+ [6] |
| --- | --- | --- | --- | --- | --- | --- | --- | --- | --- | --- |
| TS-PTDH: 16× thermostable variant of Pseudomonas stutzeri phosphite dehydrogenase (SEQ ID NO:2), engineering template (protein, listed as Pseudomonas stutzeri) MLPKLVITHRVHEEILQLLAPHCELITNQTDSTLTREEILRRCRDAQAMMAFMPDRVDADFLQACPELRVIGCALKGFDNFDVDACTARGVWLTFVPDLLTVPTAELAIGLAVGLGRHLRAADAFVRSGKFRGWQPRFYGTGLDNATVGFLGMGAIGLAMADRLQGWGATLQYHEAKALDTQTEQRLGLRQVACSELFASSDFILLALPLNADTLHLVNAELLALVRPGALLVNPCRGSVVDEAAVLAALERGQLGGYAADVFEMEDWARADRPQQIDPALLAHPNTLFTPHIGSAVRAVRLEIERCAAQNILQALAGERPINAVNRLPKANPAAD | 60 ± 10 | 1.03 ± 0.01 | 740 ± 40 | 0.57 ± 0.01 | > 5000 | 53.0 ± 3.4 | cofactor dose-dependent response | grew poorly | supported cell growth | – |
| wild-type PTDH: wild-type phosphite dehydrogenase enzyme, literature TTN with NAD^+ (protein, UniProt O69054 1-336, looked up) Phosphonate dehydrogenase: MLPKLVITHRVHDEILQLLAPHCELMTNQTDSTLTREEILRRCRDAQAMMAFMPDRVDADFLQACPELRVVGCALKGFDNFDVDACTARGVWLTFVPDLLTVPTAELAIGLAVGLGRHLRAADAFVRSGEFQGWQPQFYGTGLDNATVGILGMGAIGLAMADRLQGWGATLQYHEAKALDTQTEQRLGLRQVACSELFASSDFILLALPLNADTQHLVNAELLALVRPGALLVNPCRGSVVDEAAVLAALERGQLGGYAADVFEMEDWARADRPRLIDPALLAHPNTLFTPHIGSAVRAVRLEIERCAAQNIIQVLAGARPINAANRLPKAEPAAC | – | – | – | – | – | – | – | – | – | 80,000 |
